Assays:
[1] = biological target: T1, CodY-His5 (Bacillus subtilis) (UniProt P39779); test: EMSA; settings: CodY assays with 10 mM ILV (plus 2 mM GTP in Fig 2 footprints); Kd = protein monomer concentration shifting 50% of DNA; buffer, salt, pH and temperature not …
T1 sequence: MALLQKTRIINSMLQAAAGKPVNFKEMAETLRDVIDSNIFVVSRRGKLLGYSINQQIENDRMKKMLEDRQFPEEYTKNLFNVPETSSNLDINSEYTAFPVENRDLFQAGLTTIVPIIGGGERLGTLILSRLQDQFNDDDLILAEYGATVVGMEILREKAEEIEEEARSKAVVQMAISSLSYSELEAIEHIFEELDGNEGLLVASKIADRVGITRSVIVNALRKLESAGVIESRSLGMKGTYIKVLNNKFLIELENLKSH

[2] = biological target: T2, His6-ScoC (Bacillus subtilis) (UniProt P11065); test: EMSA; settings: CodY assays with 10 mM ILV (plus 2 mM GTP in Fig 2 footprints); Kd = protein monomer concentration shifting 50% of DNA; buffer, salt, pH and temperature not …
T2 sequence: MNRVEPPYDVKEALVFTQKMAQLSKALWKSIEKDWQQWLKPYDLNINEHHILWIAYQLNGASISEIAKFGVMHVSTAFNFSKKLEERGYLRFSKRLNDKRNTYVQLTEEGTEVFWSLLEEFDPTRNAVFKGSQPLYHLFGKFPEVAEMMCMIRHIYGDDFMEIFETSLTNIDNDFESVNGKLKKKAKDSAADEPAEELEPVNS

In the case of “TCGTTTCGTCATATTATCTGACAATTAATTGACAGAATATTTTAACATAATTATTAGGAGGATT (double strand) [braB64]”, the Kd [1] is reported as 5 nM and the Kd [2] is reported as 150 nM.
Work on braB144p+ (gel shift) yielded a Kd [1] of 4 nM.
For braB156p+ (gel shift), the Kd [1] was 75 nM.
With braB242p+ the Kd [1] was 3 nM.

— PMC4608796
